Test results as given in paper PMC3478262.

Target: Rv0132c–Δ38 protein (Mycobacterium tuberculosis H37Rv) (UniProt P96809)
Assay: SEC

For “Rv0132c–Δ38 protein (from UniProt P96809 39-360) (domain or fragment)”, the stoichiometry N was 2.
